# B1: REGN475 (antibody, human IgG4 S228P)
# heavy: not shown
# VL: DIQMTQSPSSLSASAGDRVTITCRASQAIRNDLGWYQQKPGKAPKRLIYAAFNLQSGVPSRFSGSGSGTEFTLTISSLQPEDLASYYCQQYNRYPWTFGQGTKVEIKR
# B2: human neurotrophin-3 (NT-3) (ligand, UniProt P20783 139-257, looked up)
# chain: YAEHKSHRGEYSVCDSESLWVTDKSSAIDIRGHQVTVLGEIKTGNSPVKQYFYETRCKEARPVKNGCRGIDDKHWNSQCKTSQTYVRALTSENNKLVGWRWIRIDTSCVCALSRKIGRT
# notes: also called human NT-3
# Tests used:
# [1] = molecular target: T1, human nerve growth factor (NGF) (human, UniProt P01138 122-241); experiment: BIACORE blocking; % free NGF bound to TrkA-hFc chip
# T1 construct: range 122-241; biotin-labeled in OCTET and ELISA assays; also called human NGF; biotin-NGF
# Description: (§1) To identify blocking antibodies, a receptor blocking assay was designed using a BIACORE™ 3000 instrument. Recombinant human TrkA-hFc and human p75-hFc proteins were amine-coupled to a CM5 chip to a density of about 5000-6000 RU.
# [2] = molecular target: T1, human nerve growth factor (NGF); experiment: BIACORE SPR; purified mAb
# Description: (§2) Antibodies were captured on either a goat, anti-human or anti-mouse IgG polyclonal antibody surface created by direct amine coupling of the capture antibody to a BIACORE™ chip. […] Kinetic analysis was performed to obtain the equilibrium dissociation constant (KD) and dissociation rate constant, and the latter was used to calculate the antigen/antibody complex dissociation t_{1/2} (Table 1).
# [3] = molecular target: T1, human nerve growth factor (NGF); experiment: competition ELISA; 50 pM biotin-NGF, hp75-hFc plate
# Description: (§3) Specifically, the microtiter plates were prepared by coating the plates with 0.5 μg/ml hTrkA-hFc or 1 μg/ml hp75-hFc solution in PBS buffer overnight at 4° C., followed by blocking the plates with 0.5% BSA prior to use.
# [4] = molecular target: B2; experiment: BIACORE SPR
# [5] = molecular target: T1, human nerve growth factor (NGF); experiment: competition ELISA; 50 pM biotin-NGF, hTrkA-hFc plate
# Description: as §3
# [6] = molecular target: T1, human nerve growth factor (NGF); experiment: BIACORE blocking; % free NGF bound to p75-hFc chip
# Description: as §1
# rat NGF (rNGF) [7] = molecular target: T2, rat NGF (rNGF) (rat, UniProt P25427 122-241, limits assumed); experiment: BIACORE SPR; purified mAb
# mouse NGF (mNGF) [8] = molecular target: T3, mouse NGF (mNGF) (mouse, UniProt P01139 122-241, limits assumed); experiment: BIACORE SPR; purified mAb
# [9] = molecular target: T1, human nerve growth factor (NGF); experiment: BIACORE SPR; purified mAb; remark: listed apart in the source
# [10] = molecular target: B2; experiment: BIACORE; 20 nM NT-3 + 500 nM agent, % NT-3 bound to TrkA-hFc chip
# Description: (§4) Human TrkA-hFc (9300 RU), human TrkB-hFc (6000 RU), human TrkC-hFc (9100 RU) and human p75-hFc (7500 RU) were covalently coupled to BIACORE® CM5 chip surfaces by amine-coupling procedure. […] The binding mixture was first incubated at room temperature to reach equilibrium (about 1 hr) and then was injected over the above TrkA-hFc, TrkB-hFc, TrkC-hFc and p75-hFc surfaces.
# [11] = molecular target: B2; experiment: BIACORE; 20 nM NT-3 + 500 nM agent, % NT-3 bound to p75-hFc chip
# Description: as §4
# [12] = molecular target: B2; experiment: BIACORE; 20 nM NT-3 + 500 nM agent, % NT-3 bound to TrkB-hFc chip
# Description: as §4
# [13] = molecular target: B2; experiment: BIACORE; 20 nM NT-3 + 500 nM agent, % NT-3 bound to TrkC-hFc chip
# Description: as §4
# [14] = molecular target: T1, human nerve growth factor (NGF); experiment: cell-based or functional assay
# [15] = molecular target: B2; experiment: OCTET solution competition against biotin-NGF sensor
# Description: (§5) Changes in the thickness of the biological layer were measured after incubation. The binding was normalized as a percentage of binding relative to the binding of antibody in absence of competitor.
# REGN475 = molecular target: B1; experiment: OCTET; % REGN475 binding to biotin-NGF sensor, no competitor (reference)
# Description: as §5
# [16] = molecular target: T4, humanized anti-human NGF monoclonal antibody E3 ("RN624") (tanezumab; CAS Registry No. 880266-57-9); experiment: OCTET; % RN624 binding to biotin-NGF sensor, no competitor (reference)
# T4 construct: control antibody; also called Control (RN624); Control mAb (RN624)
# Description: as §5
# [17] = molecular target: T1, human nerve growth factor (NGF); experiment: BIACORE SPR; mAb captured, 20 nM NGF
# Description: (§6) Briefly, goat anti-human IgG polyclonal antibody was chemically linked to a CM5 chip. […] Both association and dissociation phases were monitored and data were analyzed.
# [18] = molecular target: T1, human nerve growth factor (NGF); experiment: cell-based or functional assay; remark: listed apart in the source
# [19] = molecular target: T1, human nerve growth factor (NGF); experiment: BIACORE SPR; mAb captured, human NGF injected
# Description: as §2
# [20] = molecular target: T1, human nerve growth factor (NGF); experiment: BIACORE SPR; complex dissociation half-life
# Description: as §2
# [21] = molecular target: B2; experiment: BIACORE SPR; mAb captured, NT-3 injected
# Description: as §6
# rat NGF (rNGF) [22] = molecular target: T2, rat NGF (rNGF); experiment: BIACORE SPR
# Description: as §2
# (§7) The binding affinities of the antibodies to both mNGF and rNGF were determined as described above.
# mouse NGF (mNGF) [23] = molecular target: T3, mouse NGF (mNGF); experiment: BIACORE SPR
# Description: as §2, §7
# [24] = molecular target: T1, human nerve growth factor (NGF); experiment: BIACORE SPR
# Description: as §2, §7
# T1 sequence (P01138 122-241 limits assumed): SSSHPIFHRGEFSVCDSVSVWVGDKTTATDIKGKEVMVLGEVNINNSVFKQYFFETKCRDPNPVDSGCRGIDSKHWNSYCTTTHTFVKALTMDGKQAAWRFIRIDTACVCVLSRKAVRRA
# T1 sequence (P01138 122-241 limits assumed): as above
# T3 sequence (P01139 122-241 limits assumed): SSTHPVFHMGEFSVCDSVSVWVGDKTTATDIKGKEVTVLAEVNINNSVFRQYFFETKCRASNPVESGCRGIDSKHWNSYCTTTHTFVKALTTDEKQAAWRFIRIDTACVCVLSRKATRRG
# T2 sequence (P25427 122-241 limits assumed): as the sequence (P01139 122-241 limits assumed) above, with A40G, R50K, S61P, E94D, T117A counted along it
Binder,% Binding TrkA-hFc [1],Kd [2],t1/2 [2],IC50 [3],binding result [4],IC50 [5],% Binding p75-hFc [6],Kd (rat NGF (rNGF) [7]),Kd (mouse NGF (mNGF) [8]),Kd [9],% binding [10],% binding [12],% binding [13],"IC50 (pM), PC12 SRE-luciferase [14]",other results
"REGN476 (antibody, human IgG4 S228P, V domains shown) VH: EVQLVESGGGLVQPGRSLRLSCAAPGFNFDDYAMHWVRQAPGKGLEWVSGISWNSGTIGYADSVKGRFTISRDNAKNSLYLQMNSLRAEDTALYYCAKEGVWFGKLFSSYGMDVWGQGTTVTVSS VL: not shown",6%,8.91 pM,4 h,61 pM,no binding (tested: 1.25 nM to 40 nM),65 pM,13%,155 pM,115 pM,8.91 pM,,,,,
"REGN477 (antibody, human IgG4 S228P) heavy: not shown VL: EIVMTQSPATLSVSPGERATLSCRASQSVTYNLDWYQQKPGQAPRLLIFGASTRATGIPARFSGSGSGTEFTLTITSLQSEDFAVYYCQQYNNWPYTFGQGTKLEIKR",9%,7.98 pM,4 h,62 pM,no binding (tested: 1.25 nM to 40 nM),65 pM,13%,164 pM,133 pM,7.98 pM,,,,,
"recombinant human TrkA-hFc (Fc fusion, UniProt P04629 33-423, looked up, extracellular domain; dimeric fusion protein; also called hTrkA-hFc; not shown: Fc portion of human IgG1) AAPCPDACCPHGSSGLRCTRDGALDSLHHLPGAENLTELYIENQQHLQHLELRDLRGLGELRNLTIVKSGLRFVAPDAFHFTPRLSRLNLSFNALESLSWKTVQGLSLQELVLSGNPLHCSCALRWLQRWEEEGLGGVPEQKLQCHGQGPLAHMPNASCGVPTLKVQVPNASVDVGDDVLLRCQVEGRGLEQAGWILTELEQSATVMKSGGLPSLGLTLANVTSDLNRKNVTCWAENDVGRAEVSVQVNVSFPASVQLHTAVEMHHWCIPFSVDGQPAPSLRWLFNGSVLNETSFIFTEFLEPAANETVRHGCLRLNQPTHVNNGNYTLLAANPFGQASASIMAAFMDNPFEFNPEDPIPVSFSPVDTNSTSGDPVEKKDETPFGVSVAVG",,,,,,,,,,,21%,5%,3%,,% binding [11]: 7%
"REGN472 (antibody, human IgG1) heavy: not shown VL: DIQMTQSPSSLSASVGDRVTITCRASQAIRNDLGWYQQKPGKAPKRLIYAAFNLQSGVPSRFSGSGSGTEFTLTISSLQPEDFATYYCQQYNRYPWTFGQGTKVEIKR",4%,0.41 pM,30 h,12 pM,no binding (tested: 1.25 nM to 40 nM),12 pM,7%,3.96 pM,0.61 pM,0.41 pM,,,,4.5 pM,
"REGN474 (antibody, human IgG4 S228P) heavy: not shown VL: DIQMTQSPSSLSASVGDRVTITCRASQAIRNDLGWYQQKPGKAPKRLIYAAFNLQSGVPSRFSGSGSGTEFTLTISSLQPEDFATYYCQQYNRYPWTFGQGTKVEIKR",6%,0.41 pM,31 h,6.3 pM,no binding (tested: 1.25 nM to 40 nM),8.1 pM,9%,3.42 pM,0.43 pM,0.41 pM,,,,6.6 pM,
B1,6%,0.18 pM,57 h,22 pM,,20 pM,10%,0.93 pM,0.36 pM,0.18 pM,90%,99%,101%,9.6 pM,binding result [15]: no binding (tested: 0 to 4 µM)
"human brain derived neurotrophic factor (hBDNF) (ligand, UniProt P23560 129-247, looked up) HSDPARRGELSVCDSISEWVTAADKKTAVDMSGGTVTVLEKVPVSKGQLKQYFYETKCNPMGYTKEGCRGIDKRHWNSQCRTTQSYVRALTMDSKKRIGWRFIRIDTSCVCTLTIKRGR",,,,,,,,,,,,,,,REGN475 % Binding (REGN475): 100%; RN624 % Binding [16]: 100%
B2,,,,,,,,,,,,,,,REGN475 % Binding (REGN475): 100%; RN624 % Binding [16]: 100%
"301272-3H10-A10 (antibody, also called REGN261) heavy: not shown VL: DIRMTQSPSSLSASAGDRVTITCRASQAIRNDLGWYQQKPGKAPKRLIYAAFNLQSGVPSRFSGSGSGTEFTLTISSLQPEDLASYYCQQYNRYPWTFGQGTKLEIK",1%,,,,,,2%,,,,,,,,Kd [17]: 0.1 pM; MG87 IC50 [18]: < 186 pM; PC12 IC50 [18]: 9 pM; Kd [19]: 0.1 pM; t1/2 [20]: 25.2 h; binding result [21]: no binding (tested: 20 nM); Kd (rat NGF (rNGF) [22]): 0.6 pM; Kd (mouse NGF (mNGF) [23]): 0.2 pM; Kd [24]: 0.1 pM
"recombinant human p75-hFc (Fc fusion, UniProt P08138 29-250, looked up, extracellular domain; dimeric fusion protein; also called hp75-hFc; not shown: Fc portion of human IgG1) KEACPTGLYTHSGECCKACNLGEGVAQPCGANQTVCEPCLDSVTFSDVVSATEPCKPCTECVGLQSMSAPCVEADDAVCRCAYGYYQDETTGRCEACRVCEAGSGLVFSCQDKQNTVCEECPDGTYSDEANHVDPCLPCTVCEDTERQLRECTRWADAECEEIPGRWITRSTPPEGSDSTAPSTQEPEAPPEQDLIASTVAGVVTTVMGSSQPVVTRGTTDN",,,,,,,,,,,14%,2%,2%,,% binding [11]: 4%

# From patent US20120164688A1 (Regeneron, published 2012)
